Source: IntAct's records for PubMed 21642537

Tests used:
PKD2, Q13563-1 [1] = target: T1, PKD2, Q13563-1
T1 sequence: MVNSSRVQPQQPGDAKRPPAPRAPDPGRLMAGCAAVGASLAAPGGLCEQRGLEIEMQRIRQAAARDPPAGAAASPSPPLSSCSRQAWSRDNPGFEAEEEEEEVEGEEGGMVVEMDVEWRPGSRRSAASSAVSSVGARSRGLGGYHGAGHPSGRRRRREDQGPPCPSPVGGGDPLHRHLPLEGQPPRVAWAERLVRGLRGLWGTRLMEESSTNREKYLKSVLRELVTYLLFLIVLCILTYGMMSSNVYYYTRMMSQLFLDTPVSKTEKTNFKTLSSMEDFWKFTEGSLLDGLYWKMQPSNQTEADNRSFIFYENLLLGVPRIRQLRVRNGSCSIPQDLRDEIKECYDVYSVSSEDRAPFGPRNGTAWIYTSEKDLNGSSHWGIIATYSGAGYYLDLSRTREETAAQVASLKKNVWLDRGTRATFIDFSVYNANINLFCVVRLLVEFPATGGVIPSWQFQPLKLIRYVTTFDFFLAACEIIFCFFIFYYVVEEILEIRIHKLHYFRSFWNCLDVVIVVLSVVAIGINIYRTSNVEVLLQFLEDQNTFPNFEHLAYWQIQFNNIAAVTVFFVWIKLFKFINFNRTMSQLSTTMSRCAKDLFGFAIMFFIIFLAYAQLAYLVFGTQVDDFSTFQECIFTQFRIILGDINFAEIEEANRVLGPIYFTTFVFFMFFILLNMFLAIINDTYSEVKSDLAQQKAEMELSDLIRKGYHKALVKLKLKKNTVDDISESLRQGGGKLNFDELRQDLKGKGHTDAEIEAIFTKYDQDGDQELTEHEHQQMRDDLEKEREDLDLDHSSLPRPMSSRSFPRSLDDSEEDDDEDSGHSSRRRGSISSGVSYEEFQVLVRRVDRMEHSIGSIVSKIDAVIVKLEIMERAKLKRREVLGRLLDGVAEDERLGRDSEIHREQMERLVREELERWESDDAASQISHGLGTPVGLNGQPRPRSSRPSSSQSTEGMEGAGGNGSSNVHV

PKD2, Q13563-1 [2] = target: T1, PKD2, Q13563-1; remark: listed apart in the source

| Substance | effect of a mutation on the interaction (PKD2, Q13563-1 [1]) | effect of a mutation on the interaction (PKD2, Q13563-1 [2]) |
| --- | --- | --- |
| Polycystin-1 (Homo sapiens) (from UniProt P98161-3) L4238A;E4239A | disrupting interaction strength |  |
| Polycystin-1 (Homo sapiens) (from UniProt P98161-3) L4238A;L4242A;L4245A | decreasing interaction strength |  |
| Polycystin-1 (Homo sapiens) (from UniProt P98161-3) Y4236R | decreasing interaction strength |  |
| Polycystin-1 (Homo sapiens) (from UniProt P98161-3) D4234A;Y4236A | decreasing interaction strength |  |
| Polycystin-1 (Homo sapiens) (from UniProt P98161-3) D4234R | decreasing interaction strength |  |
| Polycystin-1 (Homo sapiens) (from UniProt P98161-3) L4238A | decreasing interaction strength |  |
| Polycystin-1 (Homo sapiens) (from UniProt P98161-3) L4228A;N4229A | decreasing interaction strength |  |
| Polycystin-1 (Homo sapiens) (from UniProt P98161-3) V4217A;L4228A | decreasing interaction strength |  |
| Polycystin-1 (Homo sapiens) (from UniProt P98161-3) L4238A;L4242A | disrupting interaction strength |  |
| Polycystin-1 (Homo sapiens) (from UniProt P98161-3) F4225A;L4228A | decreasing interaction strength |  |
| Polycystin-1 (Homo sapiens) (from UniProt P98161-3) F4225A;R4227A | decreasing interaction strength |  |
| Polycystin-1 (Mus musculus), O08852 L4229A;E4230A |  | decreasing interaction strength |
| Polycystin-1 (Mus musculus), O08852 L4229A;L4233A |  | decreasing interaction strength |
